Experimental findings from the DeepSol protein solubility set are described below.

The data set can be described thus: soluble on expression in E. coli; label from the status in PepcDB or PDB records.
As for “MGSDKIHHHHHHMKRISQQELESYLWGAAVLLRGLIDAGDYKQFIFPLLFYKRVSDVWDEEYQAALANSGGDLSYAQFAENHRFQIPAGAHWNDVRQTPKNVGAAIQKAMRAIESANPDLLDGIFGDAPWTNRERLPDETLKNLIEHFSTQTLSVANVPEDELGNAYEYLIKKFADDSGHTAAEFYTNRTVVHLMTQLLAPQAGESIYDPTCGTGGMLISALDEVKRAGGEYRTLKLYGQERNLITSSIARMNLFLHGVEDFEIIRGDTLAEPKHIEGDRLRQFDVILANPPYSIKQWNREAWSSDKWGRNSLGTPPQGRADYAFQQHILTSLTAKGRCAVLWPHGVLFRNEEQSMRAKMVEQDWVEAVIGLGPNLFYNSPMESCIVICNRKKAAARKGKVIFIDAVNEVARERAQSFLKPEHQQRILTAYKTFADVPGFAKVATLAEIGANAGNLSIPLYVKRIAAAIATDSNDDAVSLRSAWDQWQADGRAFWQQMDALVETLDGLVAQEAADA”, the “soluble on expression in E. coli” value was “not soluble”. As for “MGSDKIHHHHHHMTAIRVTITQVKGSAPRDTGTSMLVFADRIEGTIGGGALEWEAMRLARDMLRNGTSVTTHTFPLGPALGQCCGGVVKLELQAATQWKGVEKTPIWIWGAGHVGRAIIHTLSPFSALDLSWIDTAADRFPADIPNDTHRLIATDPPRLMPHAPPNAHHLIATYSHDIDLALCHAALTHGFASAGVIGSATKWARFRKRLGQMGHSGAQISRIMCPIGDPGLGKHPQAIAIGVAARLLGEQMLQESAQHLKDVDHGGT”, the entry is “not soluble”; as for “AHHHHHHGSKERLEKLVKFMDENSIDRVFIAKPVNVYYFSGTSPLGGGYIIVDGDEATLYVPELEYEMAKEESKLPVVKFKKFDEIYEILKNTETLGIEGTLSYSMVENFKEKSNVKEFKKIDDVIKDLRIIKTKEEIEIIEKACEIADKAVMAAIEEITEGKREREVAAKVEYLMKMNGAEKPAFDTIIASGHRSALPHGVASDKRIERGDLVVIDLGALYNHYNSDITRTIVVGSPNEKQREIYEIVLEAQKRAVEAAKPGMTAKELDSIAREIIKEYGYGDYFIHSLGHGVGLEIHEWPRISQYDETVLKEGMVITIEPGIYIPKLGGVRIEDTVLITENGAKRLTKTERELL”, “not soluble”. As for “MTSIRKWQVGESLPEVTLAPVSRLDLIKYAGASGDYNPIHTIDEEAKKAGLPGIIAHGMWTMGNLAKLFTPYYEEGFVQDYFVRFQSMVFLNDVITLKATVKEKDKKAIRFAVAAVNQHGKEVIKGEAVFSLYE”, the entry is “not soluble”; as for “MGSDKIHHHHHHMIEQQMPFRRILLTSDTFQILKEGQIISTFNKCGIFYCQRGSVEVSLEGCHYHIKPGDVYIYMASTLVHLLHKSEDAEGIMVEVDFYYILPIVNKVINVESQLFMRKNPCVSLSGEQCAHFEYLLNNLWDRINAEDCQKENVQYQHLKLELIKSMGQTICYEILNMYFTNQPLQPLQQGKKDVVFQNFMLSLFRFYRKERDVSFYARMQHITPRYFSAIIKEKTGDSALQWIVRMVITEAKQLLEESDLSIKEIADQLNFPTQSFFGKYFKQYVGVSPKEYRNNAATTRIKR”, “not soluble”; as for “MAHHHHHHMNRIPAATRNAPMYATAMSQFAVCRQPWNEYISLLTKDDAQPFHTTPQEKPAYRGRKRGREGWLFGQQVQLHYHRFPDEQLFTNLTRWRMGDTVGDVAIQQFRNAQPFDIEDKDPQGFQRPAPEVYMKLNYKNPATISRFLTRTGHMYPQDIMPLNPEAVVKLRVAKAQAIRIGLYPRFGNPFWFRSQSFRPKAYQENYDPTTYSTKHTMEHFAYNWVQTDRIRQYFKGLEELHQSRRATASSGGGGVTSEHKQQSQLYALDNMSIEMHRNAPSYRADVERSIKKPTVPGLMSTKGMKKKFHNLYSSTSTKRMGFSNPTLGIKKV”, “not soluble”.

As to “MQDIWRLPATELADLVRSRRVSAREVAEAALHRLDAVNPAINAVVDHKADDALTQADAVDAAFAKGETPGVLAGVPVTVKVNVDQQGFATTNGVTLQRDWIAKTNNPVVDNLRKAGAVIIGRTNTPAFSYRWFTSNKLHGETLNPRDPSITPGGSSGGAAAAVAAGIGAIAHGTDIAGSVRYPAYACGVHGLRPTIGRVAAFNASSPERPICPQISAVSGPLARTIADVRLGLQALAQPDARDPWWVPAPLDGPPRDKRAALCIAPDDLAVVRAVRDALKDAARRLEAAGWVVDEIASTPPLREAAELQAQFWLGDGYQAMLDAAEREGDEGALACLHGNRDKAIGDLASYSKLLTRRATLTRDWQTFFETYAVLLTPVCGELPFPQRLDLKDEESFKRVWAAQMPQVGLPFMGLPALTVSTGMVGRVPVGVQVVSGRYREDLCLLAGEAIEA”, the “soluble on expression in E. coli” value was “not soluble”.

“MGSDKIHHHHHHMRVYIGCGGYTDEDWTAPGLIYEGVKKDAFLETYAHHFDAVELNSSFYAIPGLKAFEGMVRKSGGWVRFAVKLNKVFTHVRAPTDTDFDRMLQSPEPLREAGMMGPYLAQFPYSFHRTAANRKYLALLTERFAGHELAVELRHASWDKPEVREGMGEFGIIWVSPDYPPVGGMPEPQVHVTGDVGYLRLHGRNRETWWEGQSAGERHDYLYNRAEMDEWAEKIAAVAGDLSELYVFFQNTTGGHALKNIPMLREALNARGVPVQTPEAHDGGRLL”: the “soluble on expression in E. coli” value is listed as “not soluble”.

On to “MDTGELHDLTVKGAVVTQLERCEVACQRLFQNLALLGLELQNSESITEGVCDSKAASDLGSSVELLENEERALRLCVDRFVLELRQVENLAKTLDGIREEEERILSLEQRSIEQAERCFYLWNDAREMLRGTRLTSIKEVLESAARYPRIPSWTPLPTSN”, for which the “soluble on expression in E. coli” value is reported as “not soluble”. In the case of “MKICLIDETGAGDGALSVLAARWGLEHDEDNLMALVLTPEHLELRKRDEPKLGGIFVDFVGGAMAHRRKFGGGRGEAVAKAVGIKGDYLPDVVDATAGLGRDAFVLASVGCRVRMLERNPVVAALLDDGLARGYADAEIGGWLQERLQLIHASSLTALTDITPRPQVVYLDPMFPHKQKSALVKKEMRVFQSLVGPDLDADGLLEPARLLATKRVVVKRPDYAPPLANVATPNAVVTKGHRFDIYAGTPV” it was “not soluble”; in that of “MCEISVVMPVYNAEMHIKDAIESVLEQSFVDFEFILIDDGSTDHTSSIIQSYNDKRVRLIQNSHNFIESLNLGIENSLGKYMARMDGDDIMHIDRLKIQYAIMQEYPDVTVCGTWMNSIGTYSQTNGLLSTLSGWVEQPLLKFTKGNFLFHPTTMIRMDFLKKNALKYENYPYAEDFKFWVEIAKSGGRFYIDSQPLLYYRISDSQVSSQKSSEQRATTESIINEVLEYLMELNKNEYPELAAAYGDLCKLYEKQLLTKCEVLTLFQTLFSKNEKKLNLLEHHHHHH”, “soluble”; in that of “MNKAIFLDRDGTLNIDYGYVHEIDNFKFIDGVIDALRELKKMGYMLVLVTNQSGIARGYFSEDQFLQLTEWMDWSLAEQDVDLDGIYYCPHHSEGKGEYKEDCDCRKPKSGMLLQAIKELKIDPTQSIMVGDKVEDLKAGIGAKVKMNVLVRTGKPVTGEGEGIADYVLDSIVDLPRILKRLKKLEHHHHHH”, “not soluble”. As to “MATQTSKNPESVHDFTVKDAKENDVDLSIFKGKVLLIVNVASKCGMTNSNYAEMNQLYEKYKDQGLEILAFPCNQFGEEEPGTNDQITDFVCTRFKSEFPIFDKIDVNGENASPLYRFLKLGKWGIFGDDIQWNFAKFLVNKDGQVVDRYYPTTSPLSLERDIKQLLEIS”, the “soluble on expression in E. coli” value is given as “soluble”. In the case of “MIRIGVLISGSGTNLQAILDGCREGRIPGRVAVVISDRADAYGLERARRAGVDALHMDPAAYPSRTAFDAALAERLQAYGVDLVCLAGYMRLVRGPMLTAFPNRILNIHPSLLPAFPGLEAQRQALEHGVKVAGCTVHFVTAGVDEGPIILQAAVPVLEGDTVEDLRRRILAEEHRIYPEAIRLFAEGRLVIEGRRVRILDRAEAPRG” it was “soluble”.

“MAHHHHHHMSFTEWPVSRVRQEFVDYFKKQGHTFVPSSPVCPHDDPTLLFINAGMNQFKALFLGTADPNTDFGRLKRAANSQMCIRAGGKHNDLEDVGRDTYHHTFFEMLGSWSFGDYFKKEAIQWAWELLTEVYKLPKDQLYVTYFEGDESNGLDPDLEAKELWGQLLPESQIVPGNAKDNFWEMGDTGPCGPCSEVHFDRIGRRNAASLVNKDDPMVVEIWNLVFMQFERRAGGFLTPLPQKHIDTGMGLERLTSILQGVKSNYDTDAWIPLFEAIQTATGYPKSYAEIRNDPDSDALVAYRVVADHIRCLTSAVGDGVMPDSVGRGFVLRRIIRRAVRYGVQFLGAKPGFFTQLVDSVCTSLGPFFPHLKEPRNIQRIKAVLADEEQSFAKTWEMGLKHFNHAVNECRANSSKVISGSEAFVLHDRYGFPVDLTCLLAEKDGMTVDLEGFNTEMKESKVSAGRVAATKTFIDAYQLEELKTRGIPQTNDAAKYVWEDYTGDVLAIFDKKNSKFISLLEPGNDLGAEGVGIILSTTNFYAESGGQVYDTGRLVAASDSVFEGRRRTTWPATWCTWATSASTLPPRSPRLRWCSCRWTTSAACRSRQTIPRPTS”: the “soluble on expression in E. coli” value is “not soluble”. Consider “MCTSLTLETKNGQHLFARTMDFTLDMNQEVIIIPRHYQWNNITGEIINTKHATVGMGINHQGRIIMADGVNEAGMTCATLYFPGFATYSQSIDDNTTNLAPFDFVTWSLTQFNSVKELKKSVDSITFLDIPLPDLGLTPPLHWILADKWGDCIVLDPTSEGLKLYDNPLGVMTNSPEFNWHLQNLRQYIGLKSQPFAPTEWSNLPLSAFGQGSGSMGLPGDFTPPSRFVRAAYGKQNIQGIDSEEEGVSALFHILSNCEVPKGGVITEEGALDNTIYTSVMCMESGTYYYHTYDCRQIIAVHLFHENLDTDEIKAYPFQRKQKIFYEN”, for which the “soluble on expression in E. coli” value is recorded as “not soluble”.

As to “AVNEENIMIPKGVEVYEITGPYFFGIATKFEETMAQLGDRPNVRIIRMRKVPFIDSTGIHNLTTLCEMSQKEKITVILSGVNEKVYKVLEKSGFYELLGKENICPNFKIALDRAEEVMK”, the “soluble on expression in E. coli” value was “soluble”.

Turning to “AWVDQTPRTITKETGESLTIKCVLKDHSCGLSSTTWYRTQLGSTNEKTISIGGRYDETVDKGSKSFSLRISDLRVEDSGTYKCQADYSPSCYSYPSLESAVEGAGTVLTVK”, the “soluble on expression in E. coli” value was “soluble”. For “MKSKRLSLVLMTAALGLTACATTQSPTGRSQTLLYSSSQMQQMGDASFAEMKKQQKISGNKKLTQYVNCVANRVTAVLPDQTQKWDVVLFDSEQVNAFALPGGHIGVYTGLLKVASTPDQLATVLGHEVAHVLAQHGNEQVSRSQMTGMGMQIADAALGAGGVSNRDLYMSALGLGAQVGVILPFGRAQESEADIMGLELMARAGFDPAQSVVLWQNMSKAGGGKGPELLSTHPSNNNRIAQLEQLQGQMQPLYQSAKANIKNQCAAPKLEHHHHHH”, the “soluble on expression in E. coli” value is reported as “not soluble”. For “MGSDKIHHHHHHMPFAKEKGQPAIYYETIGKGTPIIFIPPPGVGHLTFRYQVPLMNQCKLITFDVRGDCQSERSTEPMTMTQLAYDVKRVLDANCVRKAIVCGYSNGAAIAQEFALTYPERTAGVILIGGYFAVKNFLLEKEYKLGIWAARNELMPLLASGLAKNHFTDKQAANELYAEIMKTDPQMLADQYTTGLHYSSEDRLHQLRVPLLLIYGANDHYLQPYQTRFRELVHDVEIVYIQGVKHQVPSKAPHECNAVLREWMRRKQFIPS”, the “soluble on expression in E. coli” value was “not soluble”. For the sequence “MVVEMLGKLKEKLQSFIRRVEENVEKEEDEAKKKGLLDKILMIEIKEKDIEEALEDLELELLEADVALEVVDELKDRIKRNLVGKKVRIGTNKEKIIEEAVRKAVLEILTPEKKMDLLEEIKKAEKPYVILFVGFNGSGKTTTIAKLAHWLKKNGFSVVIAASDTFRAGAIEQLEEHAKKVGVKVIKHKYGADPAAVAYDAIQHAKARGIDVVLIDTAGRSETNRNLMDEMKKIARVTKPNLVIFVGDSLAGNAIVEQARQFNQAVKIDGVILTKLDADARGGAALSISHVINAPILFVGIGQGYEDLIPFDERWFVEKILGEESA”, the “soluble on expression in E. coli” value is listed as “soluble”.
